Measured values from paper PMC9241776, “Azole Resistance-Associated Regulatory Motifs within the Promoter of cyp51A in Aspergillus fumigatus”.

Molecular target: T1, AtrR (Zn2Cys6 cluster and coiled-coil) (Aspergillus fumigatus, UniProt Q4WI89 50-160)
T1 sequence: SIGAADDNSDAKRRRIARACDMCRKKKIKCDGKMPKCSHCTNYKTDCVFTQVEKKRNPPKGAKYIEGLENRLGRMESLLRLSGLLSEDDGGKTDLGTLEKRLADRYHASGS
Assay: SPR; largely unaffected; SPR as in earlier publications; binding buffer and temperature not in the material (SEC buffer for AtrR and SrbA: 20 mM HEPES, 150 mM NaCl); 1:1 model with mass transport
Conditions: protein: recombinant; tags: N-terminal MBP, removed by TEV; chain copies: 2

B1: Pcyp51A SrbA* (dsDNA)
DNA 1: TCTAGAATTCCGAAGTCCGGATGTGTGCTGAGCCGAATGAA
DNA 2: TTCATTCGGCTCAGCACACATCCGGACTTCGGAATTCTAGA
B1: binds.
